Laboratory results published in the supplement of paper PMC7125110.
± gives the standard error. For some of these results: Variants at the floor of the assay were thinned out.

B1: glmS ribozyme (parent)
chain: AUAAAAGCGCCAGAACUACAGAAAUGUAGUUGACGAGGAGGAGGUUUAUCGAAUUUUCGGCGGAUGCCUCCAAA

What was measured:
Conditions in all cases: with glucosamine-6-phosphate
glucosamine-6-phosphate [1] = variants of: B1; experiment: kcat; higher = faster cleavage; RNA array
Method in brief: (§1)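 Weighted Michaelis–Menten fits across concentrations supplied kcat and KM, based on kobs from one- or two-exponential decay fits to normalised per-tile medians. The data came from barcoded ribozyme variants transcribed in situ by E. coli RNA polymerase on sequenced MiSeq chips and tracked at 37 °C by a hybridised Cy3 probe. Glucosamine-6-phosphate (40 μM to 10 mM) in HEPES/KCl/Mg(OAc)2 buffer was flowed in.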

glucosamine-6-phosphate [2] = variants of: B1; experiment: self-cleavage kobs at 40 uM GlcN6P; higher = faster cleavage; RNA array
Method in brief: as §1

glucosamine-6-phosphate [3] = variants of: B1; experiment: self-cleavage kobs at 160 uM GlcN6P; higher = faster cleavage; RNA array
Method in brief: as §1

glucosamine-6-phosphate [4] = variants of: B1; experiment: self-cleavage kobs at 640 uM GlcN6P; higher = faster cleavage; RNA array
Method in brief: as §1

glucosamine-6-phosphate [5] = variants of: B1; experiment: self-cleavage kobs at 2500 uM GlcN6P; higher = faster cleavage; RNA array
Method in brief: as §1

glucosamine-6-phosphate [6] = variants of: B1; experiment: self-cleavage kobs at 10000 uM GlcN6P; higher = faster cleavage; RNA array
Method in brief: as §1

glucosamine-6-phosphate [7] = variants of: B1; experiment: KM; higher = weaker cofactor use; RNA array
Method in brief: as §1

Row | Variant | kcat (glucosamine-6-phosphate [1]) | self-cleavage kobs at 40 uM GlcN6P (glucosamine-6-phosphate [2]) | self-cleavage kobs at 160 uM GlcN6P (glucosamine-6-phosphate [3]) | self-cleavage kobs at 640 uM GlcN6P (glucosamine-6-phosphate [4]) | self-cleavage kobs at 2500 uM GlcN6P (glucosamine-6-phosphate [5]) | self-cleavage kobs at 10000 uM GlcN6P (glucosamine-6-phosphate [6]) | KM (glucosamine-6-phosphate [7])
1 | C16U A64G | 0.018 ± 0.0074 s⁻¹ | 0.000665 ± 7.5e-05 s⁻¹ | 0.00126 ± 0.00023 s⁻¹ | 0.00457 ± 0.00072 s⁻¹ | 0.0111 ± 0.0028 s⁻¹ | 0.0176 ± 0.0031 s⁻¹ | 
2 | U31G U47G A48G | 1.96e-05 ± 7.2e-06 s⁻¹ |  |  |  |  |  | 
3 | A36C U69C | 1.31e-05 ± 3.1e-06 s⁻¹ |  |  |  | < 1e-05 s⁻¹ |  | 
4 | A6C U54G | 0.000119 ± 4.3e-06 s⁻¹ |  |  |  | 3.94e-05 ± 9.9e-06 s⁻¹ | 7.93e-05 ± 1.1e-05 s⁻¹ | 4980 ± 410 µM
5 | G60A A64G | 2.24e-05 ± 4.8e-07 s⁻¹ |  |  |  |  |  | 1390 ± 160 µM
6 | U65G G66U | 0.00147 ± 0.00011 s⁻¹ | 1.83e-05 ± 8e-06 s⁻¹ | 9.38e-05 ± 2.2e-05 s⁻¹ | 0.000342 ± 5.3e-05 s⁻¹ | 0.000789 ± 0.0001 s⁻¹ | 0.00117 ± 0.00012 s⁻¹ | 2310 ± 320 µM
7 | C10U A14G C68G | 3.32e-05 ± 9.4e-06 s⁻¹ |  |  |  |  |  | 
8 | G32U U69C | 0.00053 ± 3.6e-05 s⁻¹ |  |  | 7.6e-05 ± 2.3e-05 s⁻¹ | 0.000232 ± 4.8e-05 s⁻¹ | 0.000391 ± 5.4e-05 s⁻¹ | 3470 ± 470 µM
9 | A6G G43C C68G | 0.000785 ± 0.00019 s⁻¹ | 3.71e-05 ± 1.7e-05 s⁻¹ | 9.17e-05 ± 2.6e-05 s⁻¹ | 0.000423 ± 8.3e-05 s⁻¹ | 0.000399 ± 0.00011 s⁻¹ | 0.000819 ± 0.00015 s⁻¹ | 1000 ± 470 µM
10 | C16A U31C | 0.000468 ± 0.00021 s⁻¹ |  |  | 6.72e-05 ± 1.1e-05 s⁻¹ | 0.000139 ± 2.8e-05 s⁻¹ | 0.000418 ± 0.00011 s⁻¹ | 
11 | A33U G66A | 6.76e-05 ± 1.2e-06 s⁻¹ |  |  |  | 3.2e-05 ± 1e-05 s⁻¹ | 5.28e-05 ± 6.4e-06 s⁻¹ | 2790 ± 180 µM
12 | A14C A48C | 5.79e-05 ± 1.1e-05 s⁻¹ |  |  |  | 4.95e-05 ± 1.2e-05 s⁻¹ | 4.92e-05 ± 1.2e-05 s⁻¹ | 
13 | U54G U57A | 0.000134 ± 2.6e-05 s⁻¹ |  |  | 3.49e-05 ± 1.2e-05 s⁻¹ | 0.000118 ± 3.3e-05 s⁻¹ | 0.00011 ± 2.1e-05 s⁻¹ | 1540 ± 760 µM
14 | U54G U65C | 0.00111 ± 0.0001 s⁻¹ |  | 7.61e-05 ± 1.2e-05 s⁻¹ | 0.000211 ± 3.4e-05 s⁻¹ | 0.000567 ± 9.8e-05 s⁻¹ | 0.00091 ± 0.00012 s⁻¹ | 2390 ± 350 µM
15 | G13C A14C U45A | 0.000417 ± 0.00017 s⁻¹ |  |  |  | 0.000212 ± 4.3e-05 s⁻¹ | 0.000262 ± 5.6e-05 s⁻¹ | 
16 | G59A C67U | 4.36e-05 ± 1.3e-05 s⁻¹ |  |  |  |  | 3.54e-05 ± 9.1e-06 s⁻¹ | 
17 | U46A C68A | 1.9e-05 ± 7.6e-06 s⁻¹ | < 1e-05 s⁻¹ |  |  |  |  | 
18 | A39C A53G | 0.00638 ± 0.001 s⁻¹ | 0.000151 ± 1.5e-05 s⁻¹ | 0.000404 ± 6.3e-05 s⁻¹ | 0.00157 ± 0.00027 s⁻¹ | 0.00372 ± 0.00061 s⁻¹ | 0.00541 ± 0.0007 s⁻¹ | 1890 ± 400 µM
19 | C34A G37U C68U | < 1e-05 s⁻¹ | < 1e-05 s⁻¹ |  |  |  |  | 
